Reference: paper PMC6829621, “An RBPJ-Drosophila Model Reveals Dependence of RBPJ Protein Stability on the Formation of Transcription–Regulator Complexes” (Cells, 2019)

Target: T1, full-length Drosophila Hairless (Drosophila melanogaster, UniProt Q02308 1-1077)
T1 construct: Hairless (H), Drosophila melanogaster, full length (pEG-HFL); also called pEG-HFL; source: yeast two-hybrid fusion (EGY48 yeast, pEG202 vector)
T1 sequence (looked up): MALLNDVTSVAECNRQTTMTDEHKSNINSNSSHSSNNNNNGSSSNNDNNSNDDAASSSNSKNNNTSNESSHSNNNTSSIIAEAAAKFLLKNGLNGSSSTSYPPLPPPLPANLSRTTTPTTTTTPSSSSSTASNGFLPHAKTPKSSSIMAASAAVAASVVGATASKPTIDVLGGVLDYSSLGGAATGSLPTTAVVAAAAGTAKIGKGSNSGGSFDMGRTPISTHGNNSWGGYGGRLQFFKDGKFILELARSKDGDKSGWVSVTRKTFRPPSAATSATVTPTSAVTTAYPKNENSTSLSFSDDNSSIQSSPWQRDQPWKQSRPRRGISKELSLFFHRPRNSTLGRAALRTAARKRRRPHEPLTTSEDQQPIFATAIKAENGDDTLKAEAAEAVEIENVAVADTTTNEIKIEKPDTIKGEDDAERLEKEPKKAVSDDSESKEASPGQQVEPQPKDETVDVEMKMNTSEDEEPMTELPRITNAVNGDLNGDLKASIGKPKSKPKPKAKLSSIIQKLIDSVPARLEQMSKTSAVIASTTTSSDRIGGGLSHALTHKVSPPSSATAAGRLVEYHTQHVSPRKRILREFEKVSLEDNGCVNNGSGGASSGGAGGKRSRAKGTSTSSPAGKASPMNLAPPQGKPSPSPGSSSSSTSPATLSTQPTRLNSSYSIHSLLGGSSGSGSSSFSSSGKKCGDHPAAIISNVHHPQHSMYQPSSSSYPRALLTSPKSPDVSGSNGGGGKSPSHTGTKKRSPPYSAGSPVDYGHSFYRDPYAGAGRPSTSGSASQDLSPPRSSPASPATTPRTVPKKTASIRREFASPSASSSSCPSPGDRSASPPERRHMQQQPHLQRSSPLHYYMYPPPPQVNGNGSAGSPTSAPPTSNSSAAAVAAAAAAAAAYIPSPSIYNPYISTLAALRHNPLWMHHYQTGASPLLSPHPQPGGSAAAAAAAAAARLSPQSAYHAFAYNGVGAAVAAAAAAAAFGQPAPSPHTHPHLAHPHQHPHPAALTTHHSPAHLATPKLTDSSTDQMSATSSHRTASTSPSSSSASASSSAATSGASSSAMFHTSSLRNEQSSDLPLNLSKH
Experiment: two-hybrid; Golemis-Brent system in EGY48 yeast; H fused to LexA DNA-binding domain in pEG202, CSL variants fused to B42-AD in pJG4-5; lacZ reporter pSH18-34; qualitative, and quantified in Miller Units (six clones from two experiments)
Conditions: partners not purified

interaction strength relative to that between H and Su(H): ~40%
B1: mouse RBPJ, wild type (natural protein)
chain: not shown
notes: RBPJ, Mus musculus, full-length protein in pJG vector; This is the yeast construct, not the Su(H) exon 1-RBPJ fusion of the flies; also called RBPJ^wt; murine RBPJ; source: yeast two-hybrid fusion (EGY48 yeast, pJG4-5 vector)
